Assay results as given in PMC10576031 (Proceedings of the National Academy of Sciences of the …, 2023).

Tests used:
[1] = target: Human wild-type tau-K18 (residues 244 to 372), monomer (Homo sapiens, wild type, 2N4R (tau-F) …, UniProt P10636-8); test: far-Western, overlay or dot blot
tau-K18 fibrils = tau-K18 fibrils (Homo sapiens, wild type, 2N4R (tau-F) …, UniProt P10636-8); test: far-Western, overlay or dot blot
Chain of tau-K18 fibrils (P10636 561-689): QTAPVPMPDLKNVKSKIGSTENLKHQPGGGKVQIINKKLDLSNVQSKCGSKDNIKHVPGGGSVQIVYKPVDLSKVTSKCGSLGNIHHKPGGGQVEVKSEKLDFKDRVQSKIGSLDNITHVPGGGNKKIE

Chain of Human wild-type tau-K18 (residues 244 to 372), monomer (P10636 561-689): as above

B1: VDW nanobody (first generation, scaffold 1) (VHH)
VHH: QVQLQESGGGLVQPGGSLRLSCAASGRTFSSYNMGWFRQAPGKGREFVASITSSGDKSDYTDSVKGRFTISRDNAKNTMYLQMNNLKPEDTATYYCARGSVWIWYEPVDWSEGTQVTVSS
[1]
  binding result: binds
tau-K18 fibrils
  binding result: binds
